Residue numbers refer to the chain shown, from its start. Where two headings read alike, the source gives them in different places.
T1: human GIP receptor (hGIPR) (human, UniProt P48546 22-466)
T1 sequence: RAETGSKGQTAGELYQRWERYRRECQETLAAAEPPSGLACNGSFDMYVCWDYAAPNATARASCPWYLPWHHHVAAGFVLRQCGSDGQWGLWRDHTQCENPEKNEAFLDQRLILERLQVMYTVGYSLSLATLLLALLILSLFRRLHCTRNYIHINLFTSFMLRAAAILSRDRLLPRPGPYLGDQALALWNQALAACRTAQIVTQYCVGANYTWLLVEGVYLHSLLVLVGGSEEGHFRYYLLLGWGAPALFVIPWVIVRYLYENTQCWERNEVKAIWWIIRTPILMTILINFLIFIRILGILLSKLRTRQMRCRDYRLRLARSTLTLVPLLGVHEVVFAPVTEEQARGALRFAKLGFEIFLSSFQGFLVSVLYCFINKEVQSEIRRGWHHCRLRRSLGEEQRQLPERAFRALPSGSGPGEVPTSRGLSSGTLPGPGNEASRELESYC

B1: Example 3 (Incretin Analog 3) (peptide)
peptide: YXQGTXTSDXSIXLDXKAQXXFIXXLLEGGPSSGEPPPS
modifications: Aib at 2; αMeF(2F) at 6; 4Pal at 10; αMeL at 13; Orn (O) at 16; K17 conjugated on the epsilon-amino group with 2-[2-(2-amino-ethoxy)-ethoxy]-acetyl-γE-CO-(CH2)18-CO2H; αMeL at 20; Aib at 21; D-glutamic acid (e) at 24; αMeY at 25; C-terminal amide (S39-NH2)
notes: Synthetic acylated 39-residue peptide
B2: Example 1 (Incretin Analog 1) (peptide)
peptide: YXQGTXTSDYSILLDXKAQXAFIEYLLEGGPSSGEPPPE
modifications: Aib at 2; αMeF(2F) at 6; Orn (O) at 16; K17 conjugated on the epsilon-amino group with 2-[2-(2-amino-ethoxy)-ethoxy]-acetyl-γE-CO-(CH2)18-CO2H; 4Pal at 20; C-terminal amide (E39-NH2)
notes: Synthetic acylated 39-residue peptide, obtained as TFA salt
B3: Example 2 (Incretin Analog 2) (peptide)
peptide: B1 peptide with X10Y, X21A, X24E
modifications: Aib at 2; αMeF(2F) at 6; αMeL at 13; Orn (O) at 16; K17 conjugated on the epsilon-amino group with 2-[2-(2-amino-ethoxy)-ethoxy]-acetyl-γE-CO-(CH2)18-CO2H; Iva at 20; αMeY at 25; C-terminal amide (S39-NH2)
notes: as for B1

Experiments:
[1] = target: T1, human GIP receptor (hGIPR); assay: cell-based or functional assay
[2] = target: T1, human GIP receptor (hGIPR); assay: cell-based or functional assay; remark: listed apart in the source
[3] = target: T2, human GLP-1 receptor (hGLP-1R) (human, UniProt P43220 24-463); assay: cell-based or functional assay
[4] = target: T3, human GCG receptor (hGCGR) (human, UniProt P47871 26-477); assay: cell-based or functional assay
T3 sequence (P47871 other isoform, or with tags, fused parts or gaps limits assumed): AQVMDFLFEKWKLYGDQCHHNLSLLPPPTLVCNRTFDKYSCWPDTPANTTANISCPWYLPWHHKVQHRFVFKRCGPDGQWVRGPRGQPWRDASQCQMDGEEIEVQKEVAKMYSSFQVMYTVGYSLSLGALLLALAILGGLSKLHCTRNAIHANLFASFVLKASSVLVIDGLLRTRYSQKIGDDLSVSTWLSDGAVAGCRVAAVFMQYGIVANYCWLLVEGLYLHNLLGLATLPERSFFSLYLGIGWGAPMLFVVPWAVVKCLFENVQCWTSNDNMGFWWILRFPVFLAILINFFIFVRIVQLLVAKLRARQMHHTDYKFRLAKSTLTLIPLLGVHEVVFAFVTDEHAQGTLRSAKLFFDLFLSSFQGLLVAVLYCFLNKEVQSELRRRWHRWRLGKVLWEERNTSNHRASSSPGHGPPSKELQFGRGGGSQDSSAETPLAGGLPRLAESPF

[5] = target: T1, human GIP receptor (hGIPR); assay: radioligand competition binding, SPA, membranes of HEK293 cells overexpressing hGIPR, with bacitracin
Description: (§1) The assays are performed in the presence of bacitracin as a non-specific blocking agent to prevent acylated moieties of test analogs from binding to protein components used in standard assay buffers (e.g., albumin).
(§2) Competition curves are plotted as the percent specific inhibition (y-axis) versus log concentration of compound (x-axis) and analyzed using a four-parameter nonlinear regression fit with variable slope (ABase or Genedata).

[6] = target: T1, human GIP receptor (hGIPR); assay: cell-based or functional assay; remark: listed apart in the source
[7] = target: T2, human GLP-1 receptor (hGLP-1R); assay: cell-based or functional assay; remark: listed apart in the source
[8] = target: T3, human GCG receptor (hGCGR); assay: cell-based or functional assay; remark: listed apart in the source
[9] = target: T2, human GLP-1 receptor (hGLP-1R); assay: radioligand competition binding, SPA, membranes of HEK293 cells overexpressing hGLP-1R, with bacitracin
Description: as §1, §2

[10] = target: T3, human GCG receptor (hGCGR); assay: radioligand competition binding, SPA, membranes of HEK293 cells overexpressing hGCGR, with bacitracin
Description: as §1, §2

Molecule | cAMP EC50 (0.1% bovine casein) [1] | cAMP EC50 (0.1% bovine casein, 1.0% human serum albumin) [1] | cAMP Emax (0.1% bovine casein) [1] | cAMP EC50 (0.1% bovine casein) [2] | cAMP Emax (0.1% bovine casein) [2] | cAMP EC50 (0.1% bovine casein) [3] | cAMP Emax (0.1% bovine casein) [3] | cAMP EC50 (0.1% bovine casein) [4] | cAMP Emax (0.1% bovine casein) [4] | Ki [5] | cAMP EC50 (0.1% bovine casein, 1.0% human serum albumin) [6] | cAMP Emax (0.1% bovine casein, 1.0% human serum albumin) [6] | cAMP EC50 (0.1% bovine casein, 1.0% human serum albumin) [7] | cAMP Emax (0.1% bovine casein, 1.0% human serum albumin) [7] | cAMP EC50 (0.1% bovine casein, 1.0% human serum albumin) [8] | cAMP Emax (0.1% bovine casein, 1.0% human serum albumin) [8] | Ki [9] | Ki [10]
human GIP(1-42)NH2 (from UniProt P09681 52-93) (ligand) | 1.08 nM | 0.756 nM | 98% | – | – | – | – | – | – | – | – | – | – | – | – | – | – | –
B1 | – | – | – | 0.0306 nM | 103% | 0.451 nM | 107% | 2.49 nM | 99% | 0.114 nM | 3.72 nM | 105% | 114 nM | 111% | 480 nM | 97% | 3.63 nM | 1.73 nM
B2 | – | – | – | 0.0513 nM | 102% | 0.345 nM | 106% | 1.2 nM | 101% | 0.111 nM | – | – | 180 nM | 102% | – | – | 4.53 nM | 0.629 nM
B3 | – | – | – | 0.0256 nM | 101% | – | – | – | – | 0.158 nM | 2.91 nM | 99% | 119 nM | 116% | 537 nM | 112% | 2.54 nM | 0.95 nM

— patent US20230102339A1 (Eli Lilly, published 2023)
